Results on 21 sequences are retold here after the DeepSol protein solubility set.

This data set in a line: soluble on expression in E. coli; label from the status in PepcDB or PDB records.
As for “MVKVVVDASNVAYSTKNENSQPQMSNILAAVKSLEESGDEFVIIADASLRHDIDDKEKFEKLLESENVEEVPAGNDADHFILNIAHNEKAKILSNDKFRDYAAEFKNINSMRIPFVIENGRVTFGKPKSPKKDKNILQHISDEIIKELNFKRWEVYTGKEGLEISPLNIAKQAIIRIDNDNDTSSKLEKVFSKIPMFNKIVDMVDDVEVAAPYVIFVLVHPKDYKLAVKNAGNISVTVADRLRLEKKPLIAVRNDLFTRPGTFELNIMLADEVTEHAPYNVLVRVSTHDEVFIKKNSRNIASTIAGRLGSWKFPFVSVKPDMLLEKPGDFEIELEKGGSLDGLEHHHHHH”, the “soluble on expression in E. coli” value is on record as “soluble”.
Turning to “MGKKSKNSVTTQTQWKRLKIDFVERKIDKDDVFFEEVSDEQLNDKIIVPLFTSSGTFEETIGILIQWQEYLKSRSDRLSEVFLSKVNSYFEHIRITLALPFDESKWAELETLTETDLNKTPIFINNIRTSTVSVILHLENLIKSFHLNVKSAEIFPFDSDSFGLPPINCRKILNPLLWMKAGIEKLIQNNCQCDQPPIVPLITLLDLAPKEGHFQELAIASFFLENTAHKLDYSCSDDEKKFLDQIKMKFGTTKVDKLTMVLPDILMAYSEELVERVMPVSYFIPFELFRMMLLSWQPKVLNLRLRTEACSSIEDAARIEWDDEDVFTSTTLFNCPLFDRCEPVCLGDEEIILNCKLIVDCSGSRLFDPMFNEGNVYTAGRDFLVLFPMQTIILKRIVPLKVGSSVKVQLKKQIDYIVNTFFFNASEHQDRVVNYELTFTNSTDVQMSAVKRCIPQVANGRQIGVNLNVEQETRDLFTDHGNSCPGRHMFASFFDSENQVIVDLKVVLAN”, the “soluble on expression in E. coli” value was “not soluble”.
Turning to “MNIKRNIIFALESRKKDGVLIVENVPIRMRVNFASQRIEFTTGYRIDVAKWDADKQRVKNGCTNKLKQSASEINAALLGYYTELQEVFKRFEVAEVMPSPADVKSAFNARHRSDDVQTEQTSDKPDASAEFYKAFDEFVRVCGRQNDWTHATYEKFAAVKNHLRSFRADLSFSFFNEVGLTEYVRYLREVRKMRNSTIGKQLSFLKWFLRWSFGQGIHSNNAYDTFRPKLKDTQKKIIFLTWEELTKLREFEIPPAKQSLDRVRDVFLFQCFTGLRYSDVYNLRRSDIKEDHIEVTTIKTSDSLVIELNKHSKAILEKYQDVVFEHDKALPVITNQKMNEYLKELAELAGINEPIRQTYYKGNERIDEVTPKYALLGTHAGRRTFICNALALGIPPQVVMKWTGHSDYKAMKPYIDIADDIKANAMSKFNQL”, the “soluble on expression in E. coli” value is given as “not soluble”.
In the case of “MLIRTEAPADILTIDRLLKHAFPTDAEANLVMRLRENGKLTLSLVACTDEGEVIGHALFSPVTLNGEDLSWQGLAPLAVHEDYRRQGIGAELIKEGFESLRDFGYPVCVVLGEPNYYARQGFNAGEEMGFECAWEVPEGAFRVAELVEGQCTGRSGRIDYAPEFSEL”, the “soluble on expression in E. coli” value is on record as “not soluble”.
“MQNEKLDHESVTQAMQPKDTPELRALYKSFEEESIIPLWTQLGDLMPIHPKSKAVPHVWKWSTLLRLARKSGELVPVGRGGERRALGLANPGLGGNAYISPTMWAGIQYLGPRETAPEHRHSQNAFRFVVEGEGVWTVVNGDPVRMSRGDLLLTPGWCFHGHMNDTDQPMAWIDGLDIPFSQQMDVGFFEFGSDRVTDYATPNFSRGERLWCHPGLRPLSGLQNTVASPIGAYRWEFTDRALTEQLLLEDEGQPATVAPGHAAIRYVNPTTGGDVMPTLRCEFHRLRAGTETATRNEVGSTVFQVFEGAGAVVMNGETTKLEKGDMFVVPSWVPWSLQAETQFDLFRFSDAPIMEALSFMRTKIEGQK”: the “soluble on expression in E. coli” value was “soluble”.
On to “MKASTVLQIAYLVSQESKCCSWKVGAVIEKNGRIISTGYNGSPAGGVNCCDYAAEQGWLLNKPKHAIIQGHKPECVSFGSTDRFVLAKEHRSAHSEWSSKNEIHAELNAILFAAENGSSIEGATMYVTLSPCPDCAKAIAQSGIKKLVYCETYDKNKPGWDDILRNAGIEVFNVPKKNLNKLNWENINEFCGE”, for which the “soluble on expression in E. coli” value was “soluble”.
As for “MSDGQLVQRRRKAEEPVTEKVDEASGDSAQSSDQEDNDKGTRLTLMEQILLLGLKDREGYTSFWNDCISSGLRGCVLIELVLRGRIQLEGGGMRRKNLLNRKVTVKSSEPTGDVILDEALRHMKETNPPETVTSWIEYLSGETWNPLKLRYQLRNVRERLAKNLVEKGVLTTDKQNFLLFEITTHPLSDGNQKTKLIKEVQEAVLGKWTNDVHRMDKKMLSLIVLAHASDVLENAFAPLSDQDYEVKQMLEILFFSGKLAHFEPKNVAMKRVRSLLDLDYDQQAEKKGNDVMWAVFEAFSK”, the “soluble on expression in E. coli” value is “soluble”.
With “MGSDKIHHHHHHMEKGSIKILGEGFISSGEYENIKIVGSSKSKGNVKSNEVKVLGDAKFEGDINIKNFVVNGKTIIRGNLKAERVRVNGQLNIEGDAEIDDLVITAQQKVDGKLKCNNVTIRGQLSVNENMYAQDIKIYGEMRNKSNIECEDIKVYGVIKCDGLLNGENIYVYSGGGSYCKEIGATNIKIGRSKDAFSLIKIINIFSGKFKCNLIEGDTIELEDASIKDIRGKSISLVDNCDVGNIEYSDNLSVSDNSTVKNSIKVG” the entry was “not soluble”; with “SALSCSLQGPPEGSIENLINTISRDVTTLQSYMQRRKEEYDCILKTCPVCGAVEEYAFSTVSPTATFEQLNPENRILYELQQINEQRRTLYEDIVSVQQKPECELCLLCALHESAFECGATPTANSFTSQVQSQHTQQQQTPVFSESVVPRPTILSNKTRVFVV”, “soluble”; with “MSQENIIYFSDYICITKGADGFYIESYKKGMSVDEFNKIIGRHPEIKITSFMAIKNAILFAPKPPVKFGEVKDRISVELSSDELKAYIRLCVEEWEFSGDARVKLMEEISKSLEKAGVVFGIKEDVLLDGLCNNKQILIAEGIPPEHGEDAVIRMYEIKKAKPAIKEDGRVDHYELNLINKVKTGDWLGERIDPTPGTAGKSVKGNPIPARPGRNYPLHYDKNSVREERKGGVTYLYALKSGAVHYEGDRISVSNHLEIDGDVDFKTGNINFDGFVTIKGTVADGFSVVAVKDVEILGTIGIGSVKEVVSKEGSIYIKGGIAGKNKAVIKAKKDVYTKYISDATVACEGSLHVGLYCINSNITAREIIIDSPKGQISGGNIQCETKVLSPVLGSPSEKRTVISVKGFNRNTLKERLEEVMKNIETLKNELVKVKAEVNAYFENEQNGKVGSLKAEDIRQRFNRIKNELTELEEEKKAISDTLRTRGEGEISILKKAYPGVVIGIKNIIKEIDRPIVNTTFYIQDGYIKEV”, “soluble”.
Regarding “MFQPVTQKRLTNVSVVRMRKGGKRFEIACYPNMVMAYREGHVRDLDEVIQVEDVFENVSKGKLAANADLERCFGTRDRHAVLLQILLHGDLQVSDRERQYQSTRKLHEIASVVAAKTISRETKKPLPVGLIEKALREIHFAVQPNRPAKAQALEVIPLLRAQSGLDLERARLRLRIHVPSQRDAKAVKARLEPLQQGETDGTHSSSRSDSVRMKDGSAAVESESEEWLPGGALLWTVQADPGAFREIEEIVQRETNQQGIVEVASLRVLDDEDESILS”, the “soluble on expression in E. coli” value was “not soluble”.
“MFLSVVTVAFRNYEGVVKTWRSLRNLARDPGLSFEWIVVDGGSEDGTREFLQKRHGEFNLRFISEKDRGIYDAMNKGIALAQGRYTLFLNSGDAFHDDAALFVRQLARQKGEAMYIGDALLDFGGGHKIRRKAKPGYYIYHSLPASHQAIFFPTAALKKYPYDLQYHVSSDYALAARLYKAGYPFRRINGLVSEFSMGGVSTSNNLELCQDAKNVQRKILRVPGFWAQLSYLLRLKTTGKTKARYNKVLEHHHHHH”: the “soluble on expression in E. coli” value is on record as “not soluble”.
Take “MEFKNPGFTGLFVIGRKYFMTAENTEMTLHPKKLPPNAGKGRVKGVPNKTTSLLKESVIEAAKRAGSKYGKEGLISYLEKQALKCPAAYLALLGKVLPLQVTGEDGGAIKMIGRVEIAPLGHDNTTD”: the “soluble on expression in E. coli” value is listed as “not soluble”.
Consider “LLHGDFELAVPGGPVAAYYAAPAGREQLPIVLVVQEIFGLHEHIKDVCRRLAHDGYLAVSVNLYQRQGDASRYDNIPGLVAELVSKVPDEQVHADLDASLAWAAAHGGDGARVGVTGFCWGGRTTWMYAARNPAVKAGVAWYGRLSSGHGPLIKQVPLDVAGSLHAPVLGLYGGKDESIPLDDVRAMEARLQQGGAPAQASRIVVYPQAGHAFLADYRPSYRAADAQDGWRRMLDWFALYL”, for which the “soluble on expression in E. coli” value is “not soluble”.
For the sequence “MEVRFKIYRYNPEVDKKPYYDEYTVEVENEGVKVLTALELIKEQDPTLALRRSCREGVCGSDGMNINGKNRLACITSVGELKQPIKVNPLPGLPVIRDLIVDMKQFYKNYEKVKPYLINDDEPPVKERLQSPEDRAKLDGLYECILCACCTTSCPSFWWNPDKFIGPSGLLQAYRFIADSRDTATEQRLEDLKDPFSLFRCRTIMNCVSVCPKGLNPTEAIGKIRSALLKKNV”, the “soluble on expression in E. coli” value was “not soluble”.
As to “MAHTTGENLFTMKRVLRNLEADHDALREALADGRRMRDLLPYGDYINRYRNLTRDPMVVAIHKQFHESGLGGLTIDESMFPLSLRFEDDDVTLVFRRPEGFRHGTNEESSQRPLIERRSRIVLFWKYAEPGTDALKRISLQMFDNEGPLEEATMLSEKIPLLTKPESLTTAMFIPTHADEPRFVFGS”, the “soluble on expression in E. coli” value is listed as “not soluble”.
Turning to “MGSDKIHHHHHHMERLCEQVRKVRRWLIDQPFDGILLSEQKNIAWLTGARAYVNLATERSIVFFLITESETVMYCSNIEKERLLAEEIGDTVGEIHVFPWYDPLLAESITQEQSKIGKVVLDREVESAFKAVRSALSPSQVAGYRQLGKLSAAAVEETALGLQRGETELEIAGRLANAAIKRGIEPVVNLVAVDDRVSAYRHPLPTDKRLDRYVMIVLSGRRNGQYISLTRLVHFGVIPIDLKKKHAAVCTIDSRLMHHTRVGQSMGDLFKEMKAAYATVGYLHEWKNHHQGGLTGYVGRERLLQPDAQELIQANEVYAWNPSITGTKSEDTILVTESGPEILTLGKKFPLMTVTVAGCTYERPDILGRNDG”, the “soluble on expression in E. coli” value is given as “not soluble”.
With “MRGSHHHHHHTDPALRAPKSVIIPAGSSAPLAPFVPGTLADGVVYVSGTLAFDQHNNVLFADDPKAQTRHVLETIRKVIETAGGTMADVTFNSIFITDWKNYAAINEIYAEFFPGDKPARFCIQCGLVKPDALVEIATIAHIAKGLCGR” the entry was “soluble”.
Under “MSSFSESALEKKLSELSNSQHSVQTLSLWLIHHRKHAGPIVSVWHRELRKAKSNRKLTFLYLANDVIQNSKRKGPEFTREFESVLVDAFSHVAREADEGCKKPLERLLNIWQERSVYGGEFIQQLKLSMEDSKSPPPKATEEKKSLKRTFQQIQEEEDDDYPGSYSPQDPSAGPLLTEELIKALQDLENAASGDATVRQKIASLPQEVQDVSLLEKITDKEAAERLSKTVDEACLLLAEYNGRLAAELEDRRQLARMLVEYTQNQKDVLSEKEKKLEEYKQKLARVTQVRKELKSHIQSLPDLSLLPNVTGGLAPLPSAGDLFSTD” stands “soluble”; under “MSLSETLTLSDAKSIIENQIEELAKRNKEPEWMTKIRYKALEEFMKAPLNDPVIDEETLLNFIAKPEIEGIPEKVESLDDLPPEMKDLLDRLGINEVEQKYIAGLAVQTDTGVIYNQFLQEWAKKGLIVLPTEEAVRRYPDIMKEHFLKLFKAGESKLTAYHIAIWNGGIFLYVKENLKVPFPLHLFFLIQESSLAQAPHITIIAEKNSEVHLIEGCTAPILVRHSLHLDMTEAYLHENAKVRLTVLQNWPEYVHTRPMTRAKVGRNAEFINTTVSLGAGKSNIANPKYWVGENGYVELNGVILGQKDWYIDLGGEMHLQGEGGRGINASKSVIMDESTVITRGKIVAEAKKTKGHISCDALLLSDKARMETYPGLVSLVDEAELSHEAAIGKIKEEELFYLMSRGLSEEKATQLIVKGFVEPMLKDIPIEFVVEIKKIIELAVSGGFEGHHHHHH”, “soluble”.
“MSVATGSSETAGGASGGGARVFFQSPRGGAGGSPGSSSGSGSSREDSAPVATAAAAGQVQQQQQRRHQQGKVTVKYDRKELRKRLVLEEWIVEQLGQLYGCEEEEMPEVEIDIDDLLDADSDEERASKLQEALVDCYKPTEEFIKELLSRIRGMRKLSPPQKKSV”: the “soluble on expression in E. coli” value is reported as “soluble”.
